Earlier results, collected in patent US20150290107A1, “COMPOSITIONS FOR TREATMENT OF XEROSTOMIA AND FOR TOOTH TREATMENT” (3 IN 1 DENTAL PLLC, priority 2013, published 2015).

System: lean meat
Details: usual grade

B1: Papain (protein, UniProt P00784 134-345, looked up)
Papain: IPEYVDWRQKGAVTPVKNQGSCGSCWAFSAVVTIEGIIKIRTGNLNEYSEQELLDCDRRSYGCNGGYPWSALQLVAQYGIHYRNTYPYEGVQRYCRSREKGPYAAKTDGVRQVQPYNEGALLYSIANQPVSVVLEAAGKDFQLYRGGIFVGPCGNKVDHAVAAVGYGPNYILIKNSWGTGWGENGYIRIKRGTGNSYGVCGLYTSSFYPVKN
notes: Protease enzyme; white or grayish-white, slightly hygroscopic powder
potency: digesting times its weight of lean meat: ~35 times its weight
